Data on one molecule can be found in US20170190775A1 (published 2017).

Holding throughout (assay): SPR, TREM-1 variant captured by anti-His, Fab as analyte
Assay [1] concerns the target T1, cynomolgus TREM-1 partly humanised (construct 0239) (cynomolgus monkey).
T1 chain: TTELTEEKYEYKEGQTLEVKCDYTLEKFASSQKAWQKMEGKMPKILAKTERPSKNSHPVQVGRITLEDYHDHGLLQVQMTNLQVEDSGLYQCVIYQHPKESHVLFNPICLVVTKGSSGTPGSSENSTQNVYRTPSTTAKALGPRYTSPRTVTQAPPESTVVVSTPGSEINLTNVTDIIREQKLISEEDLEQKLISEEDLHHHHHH
As for the experimental part: (§1) Binding studies were performed on a ProteOn Analyzer that measures molecular interactions in real time through surface plasmon resonance. Experiments were run at 25° C. and the samples were stored at 15° C. in the sample compartment. The signal (RU, response units) reported by the ProteOn is directly correlated to the mass on the individual sensor chip surfaces in six parallel flow cells. Anti-His monoclonal antibody was immobilised onto 6 parallel flow cells of a GLM sensor chip using a 1:1 mixture of 0.4 M EDAC [1-ethyl-3-(3-dimethylaminopropyl) carbodiimide hydrochloride] and 0.1 M Sulfo-NHS [N-hydroxysulfosuccinimide]. […] Immobilisation was performed with all steps in horizontal direction. […] Cell culture medium from HEK 293 cells expressing wild type or different mutated variants of human or cynomolgus TREM-1 ECD was diluted 40-60 times in running buffer (10 mM HEPES, 150 mM NaCl, 3 mM EDTA, 0.05% surfactant P20, pH 7.4). TREM-1 proteins were injected over immobilised anti-His capture antibody in the vertical direction at 30 μl/min for 60 s. […] Each Fab was injected over parallel flow cells in the horizontal direction to allow for kinetic analysis of binding to TREM-1 variants captured by anti-His antibody. Prior to injection each Fab was diluted to 0, 5.5 (in one experiment), 16.7 and 50 nM in running buffer, and injected at 100 μl/min for 250 s (association time). The dissociation time following these injections was monitored for 10 minutes. The GLM chip was regenerated after each interaction cycle of TREM-1 and Fab via two 18 s injections of 10 mM Glycine and 50 mM NaOH at 100 μl/min. This regeneration step removed the TREM-1 variants and any bound Fab from the anti-His antibody surface, and allowed for the subsequent binding of the next interaction pair.

Assay [2] addresses T2, cynomolgus TREM-1 partly humanised with back mutation 4 (construct 0243) (cynomolgus monkey).
T2 construct: Printed R52R = R52 kept
T2 chain: T1 chain with Q32R
The method, then:
as §1

For assay [3], the target named is T3, cTREM-1-Cmyc2-His6 (construct 0238), cynomolgus TREM-1 wt (cynomolgus monkey).
T3 construct: ECD with C-terminal cmyc2-His6 tag; also called wt cTREM-1
T3 chain: T1 chain with T24A, F28Y, S30N, Q32R, K54E, H70P
The method, then: as §1

The target of assay [4] is T4, cynomolgus TREM-1 partly humanised with back mutation 3 (construct 0242) (cynomolgus monkey).
T4 construct: Printed N50N = N50 kept
T4 chain: T1 chain with S30N
As for the experimental part: as §1

Assay [5] deals with T5, cynomolgus TREM-1 partly humanised with back mutation 2 (construct 0241) (cynomolgus monkey).
T5 construct: Printed Y48Y = Y48 kept
T5 chain: T1 chain with F28Y
The method, then:
as §1

The target of assay [6] is T6, cynomolgus TREM-1 partly humanised with back mutation 1 (construct 0240) (cynomolgus monkey).
T6 construct: Printed A44A = A44 kept
T6 chain: T1 chain with T24A
As for the experimental part:
as §1

The target of assay [7] is T7, A24T/Y28F/N30S/R32Q/P70H-cTREM-1-Cmyc2-His6 (construct 0244), partly humanised with back mutation 5 (cynomolgus monkey).
T7 construct: the entry already carries the mutations
T7 chain: T1 chain with K54E
As for the experimental part:
as §1

Assay [8] addresses T8, A24T/Y28F/N30S/R32Q/E54K-cTREM-1-Cmyc2-His6 (construct 0245), partly humanised with back mutation 6 (cynomolgus monkey).
T8 construct: the entry already carries the mutations
T8 chain: T1 chain with H70P
The method, then: as §1

Numbering of substitutions follows the chain as printed.

B1: Fab region of mAb 0170 (Fab, V domains shown)
VH: EVQLVESGGGLVQPGGSLKLSCAASGFTFSTYAMHWVRQASGKGLEWVGRIRTKSSNYATYYAASVKGRFTISRDDSKNTAYLQMNSLKTEDTAVYYCTRDMGIRRQFAYWGQGTLVTVSS
VL: DIVLTQSPDSLAVSLGERATINCRASESVDTFDYSFLHWYQQKPGQPPKLLIYRASNLESGVPDRFSGSGSGTDFTLTISSLQAEDVAVYYCQQSNEDPYTFGQGTKLEIKR
notes: also called 0170 Fab; Fab 0170
Broadly, the Kd is the equilibrium constant for the complex coming apart. A high value points to lower affinity. Turning to B1, the Kd in assay [1] was 2 nM; in assay [3] it was 1 nM; in assay [4] it was 1 nM; in assay [5], 2 nM; in assay [6] it was 2 nM; in assay [7] it was 1 nM. Moreover, in assay [8], the affinity, expressed as Kd, was 1 nM. In assay [2], the binding result is on record as “no binding (tested: up to 50 nM Fab)”.
